Reference: patent US20170342349A1, “STABILIZED ENZYME COMPOSITIONS” (NOVOZYMES A/S, priority 2014, published 2017)

What was measured:
[1] = target: TY145 (SEQ ID NO 3) variant S114V + I150L + S173P + S175P; test: Ki fitted from Suc-AAPF-pNA activity in Model B detergent; IF relative to SEQ ID NO 3 comprising S173P + S175P
[2] = target: TY145 (SEQ ID NO 3) variant I150L + S173P + S175P; test: as above
[3] = target: TY145 (SEQ ID NO 3) variant Q70N + S173P + S175P; test: as above
[4] = target: TY145 (SEQ ID NO 3) variant S114V + S173P + S175P; test: as above
Chain of TY145 (SEQ ID NO 3) variant S114V + S173P + S175P (chain, as listed by the source S114V S173P S175P S114V S173P S175P limits assumed): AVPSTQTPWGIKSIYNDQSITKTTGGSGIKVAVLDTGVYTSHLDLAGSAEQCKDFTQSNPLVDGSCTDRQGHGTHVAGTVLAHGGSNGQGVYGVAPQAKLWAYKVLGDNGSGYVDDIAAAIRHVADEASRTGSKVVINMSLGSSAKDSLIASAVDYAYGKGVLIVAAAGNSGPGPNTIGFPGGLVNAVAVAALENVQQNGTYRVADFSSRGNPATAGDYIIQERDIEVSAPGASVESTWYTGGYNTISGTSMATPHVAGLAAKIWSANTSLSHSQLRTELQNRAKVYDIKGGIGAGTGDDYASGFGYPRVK

[5] = target: Protease P (SEQ ID NO 5) variant Q64N; test: Ki fitted from Suc-AAPF-pNA activity in Model B detergent; IF relative to SEQ ID NO 5
[6] = target: Protease P (SEQ ID NO 5) variant G127S + G128P + G129S + Y130P + D131S + M134L; test: as above
[7] = target: Protease P (SEQ ID NO 5) variant M103S; test: as above
[8] = target: Protease P (SEQ ID NO 5) variant M103A; test: as above
[9] = target: Protease P (SEQ ID NO 5) variant G128P; test: as above
[10] = target: Protease P (SEQ ID NO 5) variant Q64F; test: as above
[11] = target: Protease C (SEQ ID NO 6) variant N60A (Lederbergia lenta (Bacillus lentus)) (UniProt P29600); test: Ki fitted from Suc-AAPF-pNA activity in Model B detergent; IF relative to SEQ ID NO 6
[12] = target: Protease C (SEQ ID NO 6) variant V103A (Lederbergia lenta (Bacillus lentus)) (UniProt P29600); test: as above
[13] = target: Protease C (SEQ ID NO 6) variant N60H + S100I (Lederbergia lenta (Bacillus lentus)) (UniProt P29600); test: as above
[14] = target: Protease C (SEQ ID NO 6) variant L134V (Lederbergia lenta (Bacillus lentus)) (UniProt P29600); test: as above
[15] = target: Protease C (SEQ ID NO 6) variant N60F (Lederbergia lenta (Bacillus lentus)) (UniProt P29600); test: as above
[16] = target: Protease C (SEQ ID NO 6) variant S100I + Y166F (Lederbergia lenta (Bacillus lentus)) (UniProt P29600); test: as above
[17] = target: Protease C (SEQ ID NO 6) variant S100I + L134V (Lederbergia lenta (Bacillus lentus)) (UniProt P29600); test: as above
[18] = target: Protease C (SEQ ID NO 6) variant S100I (Lederbergia lenta (Bacillus lentus)) (UniProt P29600); test: as above
[19] = target: Protease C (SEQ ID NO 6) variant N60H (Lederbergia lenta (Bacillus lentus)) (UniProt P29600); test: as above
[20] = target: Protease C (SEQ ID NO 6) variant Y166F (Lederbergia lenta (Bacillus lentus)) (UniProt P29600); test: as above
[21] = target: Protease C (SEQ ID NO 6) variant N60F + S100I (Lederbergia lenta (Bacillus lentus)) (UniProt P29600); test: as above
[22] = target: TY145 (SEQ ID NO 3) variant S173P + S175P + F180Y + L184F; test: Ki fitted from Suc-AAPF-pNA activity in Model B detergent; IF relative to SEQ ID NO 3 comprising S173P + S175P + F180Y (second printed row for this variant)
Chain of TY145 (SEQ ID NO 3) variant S173P + S175P (chain, as listed by the source S173P S175P S173P S175P limits assumed): as the sequence (chain, as listed by the source S114V S173P S175P S114V S173P S175P limits assumed) above, with V114S counted along it

[23] = target: TY145 (SEQ ID NO 3) variant S173P + S175P + I178F + F180Y; test: as above
[24] = target: TY145 (SEQ ID NO 3) variant S173P + S175P + F180Y + G182A; test: as above
[25] = target: TY145 (SEQ ID NO 3) variant S173P + S175P; test: Ki fitted from Suc-AAPF-pNA activity in Model B detergent; IF relative to SEQ ID NO 3 comprising S173P + S175P (the reference itself)

Chain of TY145 (SEQ ID NO 3) variant I150L + S173P + S175P (chain, as listed by the source I150L S173P S175P I150L S173P S175P limits assumed): as the sequence (chain, as listed by the source S114V S173P S175P S114V S173P S175P limits assumed) above, with V114S, I150L counted along it
Chain of TY145 (SEQ ID NO 3) variant S114V + I150L + S173P + S175P (chain, as listed by the source S114V I150L S173P S175P S114V I150L S173P S175P limits assumed): as the sequence (chain, as listed by the source S114V S173P S175P S114V S173P S175P limits assumed) above, with I150L counted along it
Chain of TY145 (SEQ ID NO 3) variant Q70N + S173P + S175P (chain, as listed by the source Q70N S173P S175P Q70N S173P S175P limits assumed): as the sequence (chain, as listed by the source S114V S173P S175P S114V S173P S175P limits assumed) above, with Q70N, V114S counted along it

How did the IF (binding constant improvement factor, relative Ki) [1] turn out when “Inhibitor 1: Cbz-Gly-Ala-NHCH(CH2C6H4pOH)C(OH)(SO3Na)-H (peptide)” was run?
Its IF (binding constant improvement factor, relative Ki) is 6.14.

What about the IF (binding constant improvement factor, relative Ki) [2] of the same substance?
Its IF (binding constant improvement factor, relative Ki) is 2.05.

And the IF (binding constant improvement factor, relative Ki) [3]?
Its IF (binding constant improvement factor, relative Ki) is 4.48.

And the IF (binding constant improvement factor, relative Ki) [4]?
Its IF (binding constant improvement factor, relative Ki) is 1.83.

And the IF (binding constant improvement factor, relative Ki) [5]?
Its IF (binding constant improvement factor, relative Ki) is 1.38.

And the IF (binding constant improvement factor, relative Ki) [6]?
The IF (binding constant improvement factor, relative Ki) was 1.05.

What about the IF (binding constant improvement factor, relative Ki) [7] of the same substance?
The IF (binding constant improvement factor, relative Ki) was 1.73.

And the IF (binding constant improvement factor, relative Ki) [8]?
Its IF (binding constant improvement factor, relative Ki) is 2.31.

And the IF (binding constant improvement factor, relative Ki) [9]?
Its IF (binding constant improvement factor, relative Ki) is 1.19.

What about the IF (binding constant improvement factor, relative Ki) [10] of the same substance?
Its IF (binding constant improvement factor, relative Ki) is 3.44.

What about the IF (binding constant improvement factor, relative Ki) [11] of the same substance?
The IF (binding constant improvement factor, relative Ki) was 1.22.

And the IF (binding constant improvement factor, relative Ki) [12]?
The IF (binding constant improvement factor, relative Ki) was 1.49.

And the IF (binding constant improvement factor, relative Ki) [13]?
The IF (binding constant improvement factor, relative Ki) was 6.65.

And the IF (binding constant improvement factor, relative Ki) [14]?
The IF (binding constant improvement factor, relative Ki) was 2.89.

What about the IF (binding constant improvement factor, relative Ki) [15] of the same substance?
Its IF (binding constant improvement factor, relative Ki) is 3.25.

And the IF (binding constant improvement factor, relative Ki) [16]?
The IF (binding constant improvement factor, relative Ki) was 11.3.

And the IF (binding constant improvement factor, relative Ki) [17]?
The IF (binding constant improvement factor, relative Ki) was 15.1.

What about the IF (binding constant improvement factor, relative Ki) [18] of the same substance?
The IF (binding constant improvement factor, relative Ki) was 6.46.

What about the IF (binding constant improvement factor, relative Ki) [19] of the same substance?
The IF (binding constant improvement factor, relative Ki) was 1.24.

And the IF (binding constant improvement factor, relative Ki) [20]?
Its IF (binding constant improvement factor, relative Ki) is 1.31.

And the IF (binding constant improvement factor, relative Ki) [21]?
The IF (binding constant improvement factor, relative Ki) was 11.3.

What about the IF (binding constant improvement factor, relative Ki) [22] of the same substance?
The IF (binding constant improvement factor, relative Ki) was 3.02.

And the IF (binding constant improvement factor, relative Ki) [23]?
The IF (binding constant improvement factor, relative Ki) was 1.83.

What about the IF (binding constant improvement factor, relative Ki) [24] of the same substance?
The IF (binding constant improvement factor, relative Ki) was 2.01.

What about the IF (binding constant improvement factor, relative Ki) [25] of the same substance?
Its IF (binding constant improvement factor, relative Ki) is 1.
